# Reference: patent publication US20180021429A1, “ANTICANCER AGENTS OR ANTIMETASTATIC AGENTS USING FSTL1 AND COMBINATION DRUG THEREOF” (PHARMA FOODS INTERNATIONAL CO., LTD., priority 2015, published 2018)
# “Also recorded” adds a separate entry of the source.
# T1: FSTL1 (Homo sapiens, UniProt Q12841)
# T1 sequence (Q12841 21-308): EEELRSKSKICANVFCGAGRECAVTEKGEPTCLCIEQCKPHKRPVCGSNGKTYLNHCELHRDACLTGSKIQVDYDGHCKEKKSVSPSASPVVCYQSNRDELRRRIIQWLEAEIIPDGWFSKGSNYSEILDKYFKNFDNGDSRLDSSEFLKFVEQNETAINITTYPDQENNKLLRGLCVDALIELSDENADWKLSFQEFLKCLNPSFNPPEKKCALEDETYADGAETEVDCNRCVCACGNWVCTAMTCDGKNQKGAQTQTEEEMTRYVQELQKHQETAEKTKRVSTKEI
# Assays:
# [1] = test system: mouse melanoma cells (B16-F10) forced to express Snail; experiment: In vivo, intraperitoneal administration, Snail-positive B16-F10 bone metastasis model (Example 18); set-up: species or system C57BL/6N mice; details: intraperitoneal 10 mg/kg on days 5 and 10; day 14
# Source text: 1. Experiment Group (n=5) • 1. No treatment (0.9% NaCi as a sham) • 2. Control IgG (anti-DNP) • 3. Anti-FSTL1 Clone #6-55 • 4. Anti-FSTL1 Clone #7-34 • 5. Anti-FSTL1 Clone #8-1 […]
# • Effects on the growth of subcutaneous tumor (calculation of tumor volume by tumor size measurement): measured 7, 11, and 14 days after tumor implantation (FIG. 12B) • Effects on bone metastasis (GFP-positive tumor cells in bone marrow or the spleen) (FIGS. 12A and 12C) • Effects on MSC expansion (CD45-negative cells in bone marrow or the spleen) (FIGS. 12A and 12C) • Effects on weight loss (FIG. 12A) • Effects on the expansion of immunosuppressive Treg cells (CD4-positive and Foxp3-positive cells in the spleen) (FIG. 12C) • Other immunosuppressive properties (FIG. 12C)
# In Example 17, the antibody was administered into tumor according to the purpose of “inhibiting metastasis from a primary focus to bone” as previously conducted by the present inventors. […] Specifically, antitumor effects and immunosuppression-mitigating effects were comparatively analyzed by the intraperitoneal administration (systemic administration) of the anti-FSTL1 antibody using bone metastasis models in which mouse melanoma cells (B16-F10) forced to express Snail were subcutaneously and intravenously transplanted in C57BL/6N mice. […]
# [2] = test system: GFP+F10-snail+ tumor cells; experiment: In vivo drug efficacy of each anti-FSTL1 antibody clone, GFP+F10-snail+ tumor model (Example 32); set-up: species or system mouse; details: intraperitoneal 10 mg/kg on days 4 and 7; for mouse survival period (life-prolonging effect): FIG. 121
# Protocol: • Day 0: transplantation of GFP+F10-snail+ tumor cells (3×10^5 cells subcutaneously & 2×10^4 cells intravenously) • Day 4: intraperitoneal administration of the antibody (first dose, 10 mg/kg) • Day 7: intraperitoneal administration of the antibody (second dose, 10 mg/kg)
# Subcutaneous tumor was measured 4, 7, 10, 14, 17, 20, and 23 days after tumor cell transplantation.
# [3] = test system: C57/BL/6 mouse-derived bone marrow cells; experiment: MSC induction inhibition test using mouse bone marrow cells, FSTL1 stimulation (Example 27); format: cell-based; details: FSTL1 20 ng/mL; antibody 10 μg/mL; 8 days; FIG. 21A
# Protocol: (§1) In this Example, the inhibitory activity of the anti-FSTL1 antibody was confirmed in an experimental system of mesenchymal stem cell induction while a FSTL1 inhibitory effect on MSC expansion induced not only by FSTL1 but by Snail+ tumor cells was also evaluated. For specific operation, each antibody (10 μg/mL) was added to systems in which C57/BL/6 mouse-derived bone marrow cells were stimulated with FSTL1 (20 ng/mL) or a culture supernatant of tumor cells. After culture for 8 days under stimulation, cell fraction CD45(−) cells (MSCs) containing MSCs at a high rate and CD45(−)CD146(+)ALCAM(+) cells (sMSCs) increasing in number in association with cancer metastasis were analyzed by flow cytometry in the same way as in Example 14, and the number of cells per culture system was counted. In this Example, mouse immunoglobulin manufactured by BioLegend, Inc. (#401408, Cone MG1-45) was used as a control antibody.
# [4] = test system: C57/BL/6 mouse-derived bone marrow cells; experiment: MSC induction inhibition test using mouse bone marrow cells stimulated with FSTL1 (Example 27); format: cell-based; details: FSTL1 20 ng/mL, antibody 10 μg/mL, 8 days; flow cytometry; FIG. 115A
# Protocol: as §1
# FSTL1 = target: T1, FSTL1; experiment: as above; format: cell-based; set-up: purchased R&D Systems, Inc. 1694-FN-050; details: FSTL1 20 ng/mL, antibody 10 μg/mL, 8 days
# Protocol: as §1, with “([…],” for “(#401408,”
# as §1
Molecule,anti-weight loss effect [1],mouse survival period (life-prolonging effect) [2],"suppressive activity against subcutaneous tumor growth ([2]; vs control antibody group, FIG. 120)","MSC induction inhibitory activity (CD45(−) MSCs, CD45(−)CD146(+)ALCAM(+) sMSCs) [3]",MSC induction inhibitory effect [4],"inhibitory effect in the MSC induction inhibition test (CD45(−) MSCs and sMSCs, flow cytometry) (FSTL1)","MSC induction inhibitory activity, reproducibility confirmed (FSTL1)"
"#6-55: chicken-mouse chimeric anti-FSTL1 antibody clone; variable regions SEQ ID NO: 783 (light), 785 (heavy) (antibody, V domains shown, mouse constant regions) VH: AVTLDESGGGLQTPGGALSLVCKGSGFTFTSVTMQWVRQAPGKGLEWVASVCSGSSTYYAPAVKGRATISRDNGQSTVRLQLSNLRPEDTGTYYCAKIAGRARWSCTSAAYNIDAWGHGTEVIVSS VL: ASTQPSSVSAIPGETVKITCSGGGNNYGWYQQRSPGSAPVTVIYYNDNRPSNIPSRFSGSTSGSTSTLTITGVQADDEAIYYCGSWDSNTDSGIFGAGTTLTVL",an anti-weight loss effect (right graph of FIG. 12A) was confirmed,statistically significant life-prolonging effect,statistically significant suppressive activity,–,–,–,–
"#8-1: chicken-mouse chimeric anti-FSTL1 antibody clone; variable regions SEQ ID NO: 791 (light), 793 (heavy) (antibody, V domains shown, mouse constant regions) VH: AVTLDESGGGLQTPGGALSLVCKGSGFTFSSFNMFWVRQAPGKGLEWVAGIGKDGVPKYGAAVDGRATISKDNGQSTMRLQLNNLRAEDTGTYFCAKAAGGCSYDWCGIYAGDIDTWGHGTEVIVSS VL: ASTQPSSVSANPGEAVKITCSGGSGSYYGWYQQKSPGSAPVTVIYNNNQRPSDIPSRFSGSKSGSTATLTITGVQAEDEAVYFCGGYDSSSGHGGIFGAGTTLTVL",an anti-weight loss effect (right graph of FIG. 12A) was confirmed,–,–,–,–,–,–
"#13: chicken-mouse chimeric anti-FSTL1 antibody clone; variable regions SEQ ID NO: 815 (light), 817 (heavy) (antibody, V domains shown, mouse constant regions) VH: AVTLDESGGGLQTPGGGLSLVCKASGFTFSSVTMQWVRQAPGKGLEWVASICSGSSTYYGPAVKGRATISRDNGQNTVRLQLNNLRAEDTATYYCAKIVGRGRWSCTSAAYNIDAWGHGTEVIVSS VL: ASTQPSSVSANPGETVKITCSGGGNNYGWYQQKSPGSAPVTVIYNNNNRPSNIPSRFSGSKSGSTNTLTITGVQAEDEAVYYCGSYDSSSDSGIFGAGTTLTVL",–,–,–,strong inhibitory effect equivalent to or higher than that of #6-55,strong inhibitory effect equivalent to or higher than that of #6-55,strong inhibitory effect equivalent to or higher than that of #6-55,–
"#33: chicken-mouse chimeric anti-FSTL1 antibody clone; variable regions SEQ ID NO: 823 (light), 825 (heavy) (antibody, V domains shown, mouse constant regions) VH: AVTLDESGGGLQTPGGGLSLVCKASGFTFSSFNMNWVRQAPGKGLEYVAEISGTGSSTYYGSAVKGRATISRDNGQSTVRLQLNNLRAEDTATYFCARGDGAYSIDAWGHGTEVIVSS VL: ASTQPSSVSANPGETVEITCSGDSSYYGWFQQKSPGSAPVTVIYDNTNRPSDIPSRFSGSKSGSTATLTITGVRAEDEAVYYCGGYDSSTYDGIFGAGTTLTVL",–,therapeutic effects equal to or higher than those of #6-55,–,strong inhibitory effect equivalent to or higher than that of #6-55; also recorded: high MSC induction inhibitory activity equivalent to or higher than that of #6-55,strong inhibitory effect equivalent to or higher than that of #6-55,strong inhibitory effect equivalent to or higher than that of #6-55,high MSC induction inhibitory activity equivalent to or higher than that of #6-55
